Laboratory results published in patent US20250221936A1, “ENGINEERED HEMICHANNELS, ENGINEERED VESICLES, AND USES THEREOF” (VIRGINIA TECH INTELLECTUAL PROPERTIES, INC., priority 2018, published 2025).
No end group written: not given here.

Key:
[1] = tested on: Hela cells; test: Cellular uptake of RhodB-aCT11 peptides; assay type: cell-based; conditions: 200 to 2000 μM, 30 or 90 minutes, 37 C
From the text: Cells can take up the peptide, cytoplasmic esterases will cleave the allyl groups converting the peptide to RhodB-aCT11. RhodB-aCT11-Est, or any chemically modified drug molecule designed for cell uptake using ester bonded groups or related chemical modifications, can be packaged as cargo into EVs and exported by the cell into the media. EVs loaded with cargo molecules by this method can then be isolated using standard protocols and used in the treatment and other methods detailed herein.
Monolayers of Hela cells incubated with fluorescent-tagged RhodamineB-aCT11-Est, a cell-permeant peptide with allyl groups linked by ester bonds at aspartic (D) and glutamic (E) acid residues, as well as its carboxyl terminus are shown in FIG. 34A. The cells were incubated for 30 or 90 minutes at 37 C at pH 7.4 with different concentrations of peptides between 200 and 2000 μM. […] Cellular uptake can be observed in FIG. 34A to be particularly evident following 90 minutes at higher peptide concentrations (i.e., >1000 μM). […] RhodB-aCT11-Est taken up in this manner by cells can be packaged as cargo into EVs and following isolation can these EVs be used in treatment and other methods detailed herein.

[2] = target: T1, ZO-1 PDZ2 (Homo sapiens, UniProt Q07157); test: Protein thermal shift assay, ZO-1 PDZ2; assay type: binding; conditions: 500 μg/ml protein, 25-100 μM peptide
T1 construct: the second of the three PDZ (PDZ2) domains of ZO-1; made in house; host or cells: E. coli BL21
T1 sequence (Q07157 186-264 limits assumed): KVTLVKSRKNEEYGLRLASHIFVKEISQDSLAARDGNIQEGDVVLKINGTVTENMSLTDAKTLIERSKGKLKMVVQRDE
Procedure: Thermal stability of recombinant GST-PDZ2 or Cx43 CT in the presence or absence of peptides was determined in a 96-well format. Each assay well was composed of 500 μg/ml protein, 25-100 μM of each peptide in PBS buffer, pH7.4. All assays were performed independently six times. Samples were generally prepared in 96-well plates at final volumes of 20 μL. The fluorescent dye SYPRO Orange (5000× concentrate in DMSO, ThermoFisher, S6650) was added to a final concentration of 8X. Reactions were run on QuantStudio 6 Flex Real-Time PCR system (Applied Biosystems, part of Life Technologies Corporation, CA) according to the manufacturer's recommendations using a melt protocol in 0.05-degree/see increments from 25° C. to 95° C. The Reporter Dye was “ROX” and quencher Dye and passive reference were selected as “None” for the melt curve according to manufacturer's instructions. The data were analyzed using Protein Thermal Shift™ Software v1.3 package (Applied Biosystems, CA).

[3] = target: T2, GST-Cx43 CT (Rattus norvegicus, UniProt P08050); test: EDC cross-linking of kinase reaction mixtures, Cx43 CT; assay type: binding; conditions: 5, 10 and 25 μM
T2 construct: pGEX-6-P2 Cx43 CT amino acids 255-382; made in house; host or cells: E. coli BL21
Procedure: To characterize the interaction between the Cx43 CT substrate and peptides, the in vitro kinase assay was performed as above with modification and the constituents then subjected to a cross-linking reaction. The assay buffer used was 20 mM 3-(N-morpholino) propanesulfonic acid (MOPS), pH 7.2. All other reagents present in the kinase reaction were maintained as described above. The reaction was allowed to proceed at 37° C. for 15 minutes. Afterwards, the carbodiimide crosslinker 1-Ethyl-3-(3-dimethylaminopropyl) carbodiimide HCl (EDC) (Thermo, 22980) was added to each solution for a final concentration of 20 mM. The solution was allowed to cross-link for one hour at room temperature. The reaction was stopped by the addition of 4×LDS loading buffer, boiled for 5 minutes and subsequently separated by PAGE. The resulting gel was stained in Coomassie brilliant blue (Sigma, B0770) for two hours and destained in a solution of 4% methanol 7% acetic acid overnight. Gel bands were subsequently excised for mass spectrometric analysis. For the direct interaction between protein and peptides, PBS, pH 7.5 was used as the coupling buffer. The protein (50 μg/ml) and peptide (25 μM) were allowed to react at room temperature for one hour before EDAC was added to the reaction mixture. The reaction was Western blotted for Cx43, GST or NeutroAvidin. […]

[4] = tested on: EVs isolated from cow milk; test: Milk EV loading with Calcein AM; conditions: 0.1 and 1 μM
Procedure: EVs were isolated from cow milk and loaded with neutral non-fluorescent Calcein AM (10 μM) for 48 hours at 37 C in PBS buffer at pH 8.5 (FIG. 30A). […] Purity and integrity of exosomes isolated from cow milk was confirmed by negative stain electron microscopy (EM). FIG. 30B) illustrates an exosome isolated from cow milk. Scale bar=50 nm. The methods described herein of isolation from milk were adapted to obtain high yields of EV, taking particular care not to cause rapid and/or large-scale precipitation of milk casein, as well as in centrifugation steps, which can reduce EV yields from milk.
An exemplar of these methods is shown in FIGS. 31A-31C wherein Milk EVs incubated with Calcein AM show time-(FIG. 31A), pH-(FIG. 31B) and concentration-dependent effects on uptake of Calcein by EVs. Important to this method in the case of Calcein AM, are the multiple chemical groups linked by ester bonds to the molecule, which shield it's negatively charged moieties. Cleavage of these groups by ester bond breaking activities within EVs results in Calcein becoming negatively charged, fluorescent and retained within the EV—as exemplified by the green spots seen in most figure panels in FIG. 31. In FIG. 31A EVs are illustrated that were incubated for 1, 2 or 3 hours in PBS at 37 C at pH 7.4 with Calcein AM (5 μM). […]

[5] = target: Connexin 43 hemichannels (Homo sapiens, UniProt P17302); assay type: cell-based; conditions: 0.1 mM Ca^2+; Gap19 (200 μM)
Procedure: Media containing 0.1 mM Ca^2+ was used to open Cx43 hemichannels in the presence of 50 μM alphaCT11 peptide and/or the hemichannel blockers; Gap19 (200 μM) and carbenoxolone ([…]).

[6] = assay type: in vitro ADME
From the text: Despite efficacy of these peptides being delivered as unprotected peptide formulations, particularly when devlivered topically, delievery via many routes can be impeaded by degredation inside the body. Many other biologic and small molecule therapeutics also suffer from similar degradeation issues. Indeed, most unprotected short peptides and polynucleotides (e.g. miRNAs) are rapidly degraded in body fluids in vivo, thereby limiting the interest of the pharmaceutical industry in such molecules. This consideration is particularly relevant in pathologic situations, such as the heart post-MI, where hypoxia, oxygen free radicals, and […] prompt upregulation of degradation pathways. […] Protection by being loaded inside of an engineered vesicle can reduce degredation and/or can facilitate delivery of the cargo by forming channels with connexons present in cell membranes. See e.g. FIG. 17.

[7] = tested on: HC (hemichannel) activity; test: Hemichannel block in perfused hearts; design: species or system mouse; conditions: 2 micromolar for 20 minutes before biotin-alphaCT11 infusion
Procedure: Briefly, isolated mouse hearts were perfused with 2 micromolar carbenoxolone for 20 minutes to block HC (hemichannel) activity prior to a 20 minute infusion with biotinylated alpha CT11 (biotin-alphaCT11) according to the method described in Example 20. […] Biotinylated alpha CT11 was detected and measured on LV cryosections by streptavidin Alexa647 as noted in association with FIGS. 18A-18E.

[8] = target: Cx43 CT (Connexin 43 carboxyl terminus, amino acids 255 to 382) (UniProt P08050 255-382, limits assumed); test: cell-based or functional assay
Cx43 CT (Connexin 43 carboxyl terminus, amino acids 255 to 382), sequence (P08050 255-382 limits assumed): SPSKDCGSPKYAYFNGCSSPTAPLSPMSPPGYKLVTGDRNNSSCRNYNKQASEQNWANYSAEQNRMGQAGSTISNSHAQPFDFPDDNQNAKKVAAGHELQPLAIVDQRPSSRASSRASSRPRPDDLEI

Connexin 43 hemichannels, sequence (P17302 2-382 limits assumed): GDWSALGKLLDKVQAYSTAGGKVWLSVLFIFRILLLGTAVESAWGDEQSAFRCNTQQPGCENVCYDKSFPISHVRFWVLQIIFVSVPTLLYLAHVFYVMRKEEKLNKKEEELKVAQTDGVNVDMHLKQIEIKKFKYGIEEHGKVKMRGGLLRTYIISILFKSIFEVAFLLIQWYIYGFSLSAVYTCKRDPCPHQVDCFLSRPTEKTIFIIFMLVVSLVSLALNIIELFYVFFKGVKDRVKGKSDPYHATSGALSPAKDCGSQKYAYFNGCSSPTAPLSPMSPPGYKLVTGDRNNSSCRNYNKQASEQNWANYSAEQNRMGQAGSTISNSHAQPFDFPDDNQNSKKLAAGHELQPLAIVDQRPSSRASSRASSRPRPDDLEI
T2 sequence (P08050 255-382): as the sequence (P08050 255-382 limits assumed) above

## RhodB-aCT11: fluorescently tagged RhodamineB aCT11 peptide (RPRPDDLEI) without ester bonded groups (also: RhodamineB label, site not given here)
[1]
  cellular uptake: little evidence for uptake of RhodB-aCT11 is observed
[1]; listed as RhodamineB aCT11
  cellular uptake: does not indicate cellular uptake

## RQPKIWFPNRRKPWKK LPAARIAPR (RQPKIWFPNRRKPWKKLPAARIAPR) [M4 scram., reference compound]
[2]
  PDZ2 melt temperature (Tm): PDZ2 interaction incompetent
[3]
  EDC cross-linking to Cx43 CT: no evidence of cross-linking

## O=S(=O)(F)Cc1ccccc1 [PMSF]
[4]
  Calcein uptake into and retention within milk EVs: respectively inhibited and blocked

## Gap19: Cx43 hemichannel blocker (KQIEIKKFK; Gap19; UniProt P17302 128-136, looked up, fragment)
[5]
  alphaCT11 uptake in presence of hemichannel blocker: Dramatically lower levels of peptide uptake

## RPRPDDLEI [alpha CT11, RPRPDDLEI]
[6]
  time to degradation in blood serum: about 30 minutes

## CC1(C)[C@@H](OC(=O)CCC(=O)O)CC[C@]2(C)[C@H]3C(=O)C=C4[C@@H]5C[C@@](C)(C(=O)O)CC[C@]5(C)CC[C@@]4(C)[C@]3(C)CC[C@@H]12 [carbenoxolone]
[5]
  alphaCT11 uptake in presence of hemichannel blocker: Dramatically lower levels of peptide uptake
[7]
  cytoplasmic levels of alpha CT11 in myocytes: significant reductions (p<0.05) in cytoplastic levels of alpha CT11

## RQPKIWFPNRRKPWKKRPRPDDLEI (not fully specified) [alpha CT1]
[8]
  Cx43 S368 phosphorylation (PKC-ε kinase assay, blots of pS368 over total Cx43): ~3 fold
